Measured values as given in patent US20050266008A1 (Bristol-Myers Squibb, published 2005).
Substitutions are numbered along the chain they refer to. One block for each binder: values may come before it.

Columns and labels:
[1] = biological target: T1, IRTA3 expressed on transfected CHO cells (full-length transmembrane form with N-terminal epitope tag) (human, UniProt Q96P31 18-734); assay: flow cytometry on transfected CHO cells
T1 construct: also called CHO line expressing IRTA3
T1 sequence: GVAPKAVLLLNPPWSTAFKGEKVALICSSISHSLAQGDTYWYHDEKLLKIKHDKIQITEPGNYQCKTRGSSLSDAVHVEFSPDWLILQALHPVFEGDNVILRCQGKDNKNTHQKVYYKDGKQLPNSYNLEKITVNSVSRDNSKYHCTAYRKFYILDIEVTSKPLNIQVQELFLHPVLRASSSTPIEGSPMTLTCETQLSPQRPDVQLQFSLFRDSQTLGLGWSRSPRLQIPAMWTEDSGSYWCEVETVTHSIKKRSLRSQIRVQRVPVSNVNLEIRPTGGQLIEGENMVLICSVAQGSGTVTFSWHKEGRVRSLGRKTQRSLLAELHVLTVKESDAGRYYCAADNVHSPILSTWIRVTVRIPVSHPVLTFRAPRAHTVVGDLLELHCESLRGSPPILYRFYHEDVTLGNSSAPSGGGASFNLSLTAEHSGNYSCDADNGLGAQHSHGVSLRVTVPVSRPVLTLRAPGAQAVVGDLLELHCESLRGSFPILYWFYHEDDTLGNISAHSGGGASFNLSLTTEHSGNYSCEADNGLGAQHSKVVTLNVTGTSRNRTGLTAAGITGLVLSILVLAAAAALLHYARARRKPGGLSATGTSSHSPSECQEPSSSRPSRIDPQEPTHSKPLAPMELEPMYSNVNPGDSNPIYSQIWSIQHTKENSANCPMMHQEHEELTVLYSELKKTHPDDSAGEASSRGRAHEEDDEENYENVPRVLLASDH
Source text: (§1) Chinese hamster ovary (CHO) cell lines that express one of each of the five IRTA proteins at the cell surface were developed and used to determine the specificity of the IRTA5 HuMAbs by flow cytometry. CHO cells were transfected with expression plasmids containing full length cDNA encoding transmembrane forms of IRTA1, IRTA2, IRTA3, IRTA4, or IRTA5. In addition, the transfected proteins contained an epitope tag at the N-terminus for detection by an antibody specific for the epitope. Binding of the seven anti-IRTA5 HuMAbs was assessed by incubating the transfected cells with each of the IRTA5 Abs at a concentration of 10 μg/ml. The cells were washed and binding was detected with a FITC-labeled anti-human IgG Ab. A murine anti-epitope tag Ab, followed by labeled anti-murine IgG, was used as the positive control. Non-specific human and murine Abs were used as negative controls. The results are depicted in FIG. 9. The IRTA5 HuMAbs bound to the CHO line transfected with IRTA5 but not to CHO lines expressing IRTA1, 2, or 4 as measured by the mean fluorescent intensity (MFI) of staining.

[2] = biological target: T2, IRTA1 expressed on transfected CHO cells (full-length transmembrane form with N-terminal epitope tag) (human, UniProt Q96PJ5 20-515); assay: flow cytometry on IRTA1-CHO cells, FITC-labeled anti-human IgG
T2 construct: also called CHO line expressing IRTA1
T2 sequence: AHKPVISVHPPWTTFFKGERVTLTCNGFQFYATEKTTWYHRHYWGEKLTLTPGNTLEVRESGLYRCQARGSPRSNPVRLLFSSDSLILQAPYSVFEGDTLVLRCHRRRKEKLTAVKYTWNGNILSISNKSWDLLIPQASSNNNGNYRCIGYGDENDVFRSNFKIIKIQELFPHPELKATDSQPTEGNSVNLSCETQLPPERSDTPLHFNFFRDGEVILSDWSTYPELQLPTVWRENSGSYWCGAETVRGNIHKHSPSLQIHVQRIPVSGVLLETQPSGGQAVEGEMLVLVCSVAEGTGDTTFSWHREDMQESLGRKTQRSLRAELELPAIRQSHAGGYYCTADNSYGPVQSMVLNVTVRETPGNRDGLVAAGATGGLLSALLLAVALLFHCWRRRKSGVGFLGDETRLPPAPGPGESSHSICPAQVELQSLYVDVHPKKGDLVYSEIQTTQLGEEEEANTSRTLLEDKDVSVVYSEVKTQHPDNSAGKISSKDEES
Source text: as §1

[3] = biological target: T3, IRTA2 expressed on transfected CHO cells (full-length transmembrane form with N-terminal epitope tag) (human, UniProt Q96RD9 16-977); assay: flow cytometry on IRTA2-CHO cells, FITC-labeled anti-human IgG
T3 construct: also called CHO line expressing IRTA2
T3 chain: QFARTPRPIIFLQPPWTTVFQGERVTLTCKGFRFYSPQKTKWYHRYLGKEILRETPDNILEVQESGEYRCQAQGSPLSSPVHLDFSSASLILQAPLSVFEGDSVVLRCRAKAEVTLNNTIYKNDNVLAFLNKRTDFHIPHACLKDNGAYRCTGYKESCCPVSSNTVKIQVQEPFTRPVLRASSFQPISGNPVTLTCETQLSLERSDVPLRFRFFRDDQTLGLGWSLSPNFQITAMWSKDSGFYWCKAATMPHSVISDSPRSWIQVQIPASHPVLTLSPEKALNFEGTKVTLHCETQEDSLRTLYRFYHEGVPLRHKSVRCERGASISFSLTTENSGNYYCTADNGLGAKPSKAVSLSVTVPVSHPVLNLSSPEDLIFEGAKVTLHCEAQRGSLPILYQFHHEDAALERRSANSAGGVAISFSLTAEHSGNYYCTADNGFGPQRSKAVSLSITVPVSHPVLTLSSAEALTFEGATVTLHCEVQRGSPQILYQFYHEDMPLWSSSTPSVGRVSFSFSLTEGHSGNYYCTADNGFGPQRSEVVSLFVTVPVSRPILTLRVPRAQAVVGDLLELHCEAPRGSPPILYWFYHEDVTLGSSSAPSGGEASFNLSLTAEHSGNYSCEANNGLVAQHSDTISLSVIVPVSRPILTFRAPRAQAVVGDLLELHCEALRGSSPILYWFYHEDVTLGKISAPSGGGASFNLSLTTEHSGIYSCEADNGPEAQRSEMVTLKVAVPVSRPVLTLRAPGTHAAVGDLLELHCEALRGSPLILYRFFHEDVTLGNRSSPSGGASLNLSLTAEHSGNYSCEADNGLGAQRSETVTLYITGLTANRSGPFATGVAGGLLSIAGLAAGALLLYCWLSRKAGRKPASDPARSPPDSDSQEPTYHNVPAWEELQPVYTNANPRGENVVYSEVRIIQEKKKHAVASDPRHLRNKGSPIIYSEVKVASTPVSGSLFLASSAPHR
Source text: as §1

[4] = biological target: T4, IRTA4 expressed on transfected CHO cells (full-length transmembrane form with N-terminal epitope tag) (human, UniProt Q96LA5 20-508); assay: flow cytometry on IRTA4-CHO cells, FITC-labeled anti-human IgG
T4 construct: also called CHO line expressing IRTA4
T4 sequence: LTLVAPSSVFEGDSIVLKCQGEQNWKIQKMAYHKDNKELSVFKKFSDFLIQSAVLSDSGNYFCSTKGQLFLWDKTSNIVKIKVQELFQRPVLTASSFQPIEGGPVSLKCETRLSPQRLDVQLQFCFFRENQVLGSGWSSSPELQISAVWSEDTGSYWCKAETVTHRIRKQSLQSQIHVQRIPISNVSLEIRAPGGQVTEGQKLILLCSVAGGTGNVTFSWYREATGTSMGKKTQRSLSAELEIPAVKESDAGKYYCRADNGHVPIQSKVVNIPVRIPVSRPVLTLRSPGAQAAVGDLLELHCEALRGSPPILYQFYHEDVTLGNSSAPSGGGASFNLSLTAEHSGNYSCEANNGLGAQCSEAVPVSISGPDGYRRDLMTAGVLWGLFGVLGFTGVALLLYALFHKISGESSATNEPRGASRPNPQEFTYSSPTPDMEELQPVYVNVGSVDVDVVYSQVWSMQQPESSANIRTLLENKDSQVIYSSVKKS
Source text: as §1

[5] = biological target: T5, purified recombinant human IRTA5 fusion protein (human); assay: Biacore SPR; IRTA5 fusion protein amine-coupled to CM5 chip, antibody flowed at 267 nM, 1:1 Langmuir fit
T5 construct: Amine-coupled to a CM5 chip in the Biacore kinetics; also called recombinant IRTA5 fusion protein
Protocol: Anti-IRTA5 antibodies were characterized for affinities and binding kinetics by Biacore analysis (Biacore AB, Uppsala, Sweden). Purified recombinant human IRTA5 fusion protein was covalently linked to a CM5 chip (carboxy methyl dextran coated chip) via primary amines, using standard amine coupling chemistry and kit provided by Biacore. Binding was measured by flowing the antibodies in HBS EP buffer (provided by BIAcore AB) at a concentration of 267 nM at a flow rate of 50 μl/min. The antigen-ssociation antibodies association kinetics was followed for 3 minutes and the dissociation kinetics was followed for 7 minutes. The association and dissociation curves were fit to a 1:1 Langmuir binding model using BlAevaluation software (Biacore AB). To minimize the effects of avidity in the estimation of the binding constants, only the initial segment of data coressponding to association and dissociation phases were used for fitting.

[6] = biological target: T6, IRTA5 protein as naturally expressed on human peripheral blood B lymphocytes and B cell tumor lines (human, UniProt Q96LA6 17-429); assay: two-colour flow cytometry on human PBMC: biotinylated antibody plus FITC-streptavidin (FL1) against PE anti-CD19 (FL2)
T6 construct: Endogenous protein on untransfected human cells; also called IRTA-5 on CD19+ B cells, Daudi, Ramos, SU-DHL-4
T6 sequence: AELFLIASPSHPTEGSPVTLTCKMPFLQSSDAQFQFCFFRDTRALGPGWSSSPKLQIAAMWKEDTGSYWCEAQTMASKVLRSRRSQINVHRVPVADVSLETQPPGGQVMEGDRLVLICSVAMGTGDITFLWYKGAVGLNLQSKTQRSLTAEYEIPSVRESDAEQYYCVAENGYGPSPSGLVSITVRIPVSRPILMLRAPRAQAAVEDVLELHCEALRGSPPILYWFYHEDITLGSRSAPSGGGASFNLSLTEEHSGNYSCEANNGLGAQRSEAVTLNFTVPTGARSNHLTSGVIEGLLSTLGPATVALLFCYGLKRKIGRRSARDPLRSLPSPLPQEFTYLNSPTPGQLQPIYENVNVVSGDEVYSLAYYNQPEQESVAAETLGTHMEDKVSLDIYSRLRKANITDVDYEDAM
Protocol: CD19 is a cell surface marker that can be used to distinguish peripheral blood B lymphocytes. Human peripheral blood mononuclear cells were incubated with biotinylated 2G5, biotinylated 7G8, or an isotype control biotinylated human Ab. Cells were washed and were incubated with FITC-labeled streptavidin together with a phycoerythrin-labeled anti-CD19 antibody. Cells were washed and analyzed by flow cytometry. The results are depicted in FIG. 10A. Lymphocytes were gated as black “dots” and monocytes were gated as grey “dots”. Wavelengths were selected to screen for FITC (FL 1) and phycoerythrin (FL2) signaling. […] 2G5+ or 7G8+ cells (ordinate) were also predominantly CD19+, localizing to the double-positive, upper right quadrant.

[7] = biological target: T7, IRTA5 expressed on transfected CHO cells (full-length transmembrane form with N-terminal epitope tag) (human, UniProt Q96LA6 17-429); assay: flow cytometry on IRTA5-CHO cells, antibody at 10 µg/ml, FITC-labeled anti-human IgG; the log y axis has no label on the sheet (MFI per the text)
T7 construct: Neither the signal peptide limits nor the tag is stated; also called CHO line transfected with IRTA5; human IRTA-5
T7 sequence: T6 sequence
Source text: as §1

[8] = biological target: T6, IRTA5 protein as naturally expressed on …; assay: flow cytometry on Daudi and Ramos cells, PE anti-human secondary antibody
Protocol: The cell lines were incubated with each of the IRTA5 HuMAbs or a control human antibody, washed and detected by a phycoerythrin-labeled anti-human secondary antibody. […] The remaining 6 IRTA5 HuMAbs show a similar binding pattern (data not shown).

binding result [1]: no binding | binding result [2]: no binding (tested: 10 µg/ml) | binding result [3]: no binding (tested: 10 µg/ml) | binding result [4]: no binding (tested: 10 µg/ml) | Kd [5]: 16.8 nM | koff [5]: 0.00121 s⁻¹ | kon [5]: 72000 M⁻¹ s⁻¹ | binding result [6]: binds | binding result [7]: binds
B1: human monoclonal antibody 7G8 (antibody, V domains shown)
VH: DVHLVQSGGGLVHPGGSLRLSCAGSGFTFSTYTMHWIRQAPGKDLEWVSAIGTGGGTDYADSVKGRFTISRDNAKNSLYLQMNSLRAEDMAVYYCAREVYWYFDLWGRGTLVTVSS
VL: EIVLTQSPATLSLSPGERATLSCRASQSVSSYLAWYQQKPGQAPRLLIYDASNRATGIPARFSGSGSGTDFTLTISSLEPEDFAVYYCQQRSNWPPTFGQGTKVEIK
notes: Fully human IgG with kappa light chain from an HCo7 HuMab Mouse hybridoma; also called IRTA5 HuMAb 7G8; biotinylated 7G8

binding result [1]: no binding | binding result [2]: no binding (tested: 10 µg/ml) | binding result [3]: no binding (tested: 10 µg/ml) | binding result [4]: no binding (tested: 10 µg/ml) | Kd [5]: 0.028 nM | koff [5]: 4.3e-06 s⁻¹ | kon [5]: 152000 M⁻¹ s⁻¹ | binding result [6]: binds | binding result [7]: binds
B2: human monoclonal antibody 2G5 (antibody, V domains shown)
VH: QVQLVESGGGVVQPGRSLRLSCAASGFTFSDYGMHWVRQAPGKGLEWVAVIWYDGNNKYYADSVKGRFTISRDNSKNTLYLQMNSLRAEDTAVYYCARDWGRAFDIWGQGTMVTVSS
VL: EIVLTQSPATLSLSPGERATLSCRASQSVSSYLAWYQQKPGQAPRLLIYDASNRATGIPARFSGSGSGTDFTLTISSLEPEDFALYYCQQLNNWPPYTFGQGTKLEIK
notes: Fully human IgG with kappa light chain from an HCo7 HuMab Mouse hybridoma; also called IRTA5 HuMAb 2G5; biotinylated 2G5

binding result [1]: no binding | binding result [8]: binds | binding result [2]: no binding (tested: 10 µg/ml) | binding result [3]: no binding (tested: 10 µg/ml) | binding result [4]: no binding (tested: 10 µg/ml) | Kd [5]: 0.035 nM | koff [5]: 8.7e-06 s⁻¹ | kon [5]: 252000 M⁻¹ s⁻¹ | binding result [7]: binds
B3: human monoclonal antibody 5A2 (antibody, V domains shown)
VH: QVQVVESGGGVVQPGRSLRLSCAASGFTFSNYGMHWVRQAPGKGLEWVAGIWYDGSNKYYADSVKGRFTISRDNSKNTLYLQMNSLRAEDTAVYYCARESPNFDYWGQGTLVTVSS
VL: B2 VL with L85V, L91R, Y97W, L105V
notes: Fully human IgG with kappa light chain from an HCo7 HuMab Mouse hybridoma
